This passage reports Kd, koff and kon results from patent US20240199761A1 (AstraZeneca / MedImmune, published 2024).

For experiment [1], the target named is T1, recombinant human PAD2 (biotinylated) (human, UniProt Q9Y2J8 1-665, enzymatically biotinylated on an Avi-tag).
T1 construct: not shown: Avi-tag (and any other tags); said to be at the C-terminus in this earlier assay
The experiment in a line: SPR (Biacore), biotinylated PAD2 on CM5/C1-streptavidin, Fab flowed over; average.

Experiment [2] has as its target T2, recombinant mouse PAD2 (biotinylated) (mouse, UniProt Q08642 1-673, enzymatically biotinylated on an Avi-tag).
T2 construct: not shown: Avi-tag (and any other tags); said to be at the C-terminus in this earlier assay
The experiment is described as above.

Substitutions are numbered along the chain they refer to.

B1: 141LO0035 hIgG1 pgl-4 (Germlined) Clone 22 (Fab, V domains shown)
VH: not shown
VL: SYVLTQPPSVSVSPGQTASITCSGDKVGDKYVSWYQQKPGQSPVLVIYQDSQRPSGIPERFSGSNSGNTATLTISGTQAMDEADYYCQTWAPDVLLFGSGTKVTVL
notes: Anti-PAD2 lead; tested here as Fab
As usually defined, the Kd is the free concentration of one partner at which half of the binding sites on the other are occupied at equilibrium, for simple one-to-one binding. In general, koff refers to the first-order rate constant of dissociation. What is called kon is the rate constant with which the complex forms. In the case of B1, in experiment [1], the Kd was 0.218 nM, the koff is 0.000221 s⁻¹ and the kon was determined as 1.01e+06 M⁻¹ s⁻¹. In experiment [2], the Kd was 0.794 nM, the koff came out at 0.000766 s⁻¹ and the kon was found to be 971000 M⁻¹ s⁻¹.

B2: 141LO0030 hIgG1 pgl-4 (Germlined) (Fab, V domains shown)
VH: not shown
VL: B1 VL with A91Y, P92D, V94A, L96T
notes: Anti-PAD2; tested as Fab
Regarding B2, in experiment [1], the Kd was determined as 2.14 nM, the koff came out at 0.00101 s⁻¹ and the kon came out at 474000 M⁻¹ s⁻¹. Also, in experiment [2], the Kd is 13.2 nM, the koff is 0.00484 s⁻¹ and the kon is 378000 M⁻¹ s⁻¹.

B3: PAD40141 hIgG1 ngl-2 (Parent) (Fab, V domains shown)
VH: not shown
VL: SYVLTQPPSVSVSPGQTASITCSGDKVGDKYVSWYQQKPGQAPVLVMYQDSQRPSGIPERISGSNSGNTATLTISGTQAVDEAEYYCQTWDSNEYVFGSGTKVTVL
notes: Anti-PAD2; tested as Fab
In the case of B3, in experiment [1], the Kd stood at 261 nM, the koff was found to be 0.111 s⁻¹ and the kon was 445000 M⁻¹ s⁻¹.

B4: 141LO0055 hIgG1 ngl-2 (Fab, V domains shown)
VH: not shown
VL: B3 VL with T89S, W90E, D91N, S92A, N93V
notes: Anti-PAD2; tested as Fab
As to B4, in experiment [1], the Kd was found to be 0.364 nM, the koff amounted to 0.000675 s⁻¹ and the kon was 1.85e+06 M⁻¹ s⁻¹.

B5: 141LO0002 hIgG1 pgl-3 (Germlined) (Fab, V domains shown)
VH: not shown
VL: B1 VL with Q88E, T89V, W90G, A91V, P92D, D93Y, V94E, L95Y, L96V
notes: Anti-PAD2; tested as Fab
Regarding B5, in experiment [1], the Kd was found to be 3.31 nM, the koff is 0.0035 s⁻¹ and the on-rate constant (kon) is 1.07e+06 M⁻¹ s⁻¹. In experiment [2], the Kd worked out at 33.8 nM, the koff worked out at 0.026 s⁻¹ and the kon worked out at 777000 M⁻¹ s⁻¹.

B6: 141LO0002 hIgG1 pgl-4 (Germlined) (Fab, V domains shown)
VH: not shown
VL: B1 VL with Q88E, T89V, W90G, A91V, P92D, D93Y, V94E, L95Y, L96V
Consider B6, for which, in experiment [1], the Kd amounted to 2.78 nM, the koff was determined as 0.00314 s⁻¹ and the kon is 1.13e+06 M⁻¹ s⁻¹. Also, in experiment [2], the dissociation constant Kd worked out at 38.5 nM, the koff amounted to 0.0256 s⁻¹ and the association rate constant (kon) came out at 692000 M⁻¹ s⁻¹.

B7: 141LO0030 hIgG1 ngl-2 (Fab, V domains shown)
VH: not shown
VL: B3 VL with D91Y, S92D, N93D, E94A, Y95L, V96T
notes: Anti-PAD2; tested as Fab
On to B7, for which, in experiment [1], the Kd was 0.949 nM, the koff is 0.000613 s⁻¹ and the kon worked out at 647000 M⁻¹ s⁻¹.

B8: 141LO0002 hIgG1 ngl-2 (Fab, V domains shown)
VH: not shown
VL: B3 VL with Q88E, T89V, W90G, D91V, S92D, N93Y
As to B8, in experiment [1], the Kd came out at 3.78 nM, the koff was found to be 0.00328 s⁻¹ and the kon came out at 880000 M⁻¹ s⁻¹.

B9: 141LO0039 hIgG1 ngl-2 (Fab, V domains shown)
VH: not shown
VL: B3 VL with Q88H, W90Y, D91A, S92E, N93D
notes: Anti-PAD2; tested as Fab
Consider B9, for which, in experiment [1], the Kd was found to be 1.87 nM, the off-rate constant (koff) is 0.00157 s⁻¹ and the kon is 840000 M⁻¹ s⁻¹.

B10: 141LO0035 hIgG1 ngl-2 (Fab, V domains shown)
VH: not shown
VL: B1 VL with S42A, I47M, F61I, M80V, D84E
notes: Anti-PAD2; tested as Fab
With B10, in experiment [1], the Kd amounted to 0.185 nM, the koff was 0.000192 s⁻¹ and the kon is 1.04e+06 M⁻¹ s⁻¹. For the same molecule, in experiment [2], the Kd was found to be 0.571 nM, the koff was found to be 0.000646 s⁻¹ and the kon was 1.14e+06 M⁻¹ s⁻¹.

B11: PAD40175 hIgG1 ngl-2 (Fab, V domains shown)
VH: not shown
VL: QAVLTQPSSVSVAPGKTATITCGGDNIGSKSVHWYQQKPGQAPLLVIFYDTDRPSGVPERFSGSNSGNTATLTISRVEAGDEADYYCQVWDSNGDHYVFGTGTKLTVL
notes: Anti-PAD2; tested as Fab
Consider B11, for which, in experiment [1], the Kd amounted to 6.73 nM, the koff is 0.000629 s⁻¹ and the kon stood at 93000 M⁻¹ s⁻¹. Besides, in experiment [2], the Kd stood at 2.35 nM, the koff is 0.000288 s⁻¹ and the on-rate constant (kon) amounted to 123000 M⁻¹ s⁻¹.
